What is called Kd is the constant that tells how readily two partners part at equilibrium. Read a high Kd as a looser complex.

Assay [1] addresses Latent TGFβ binding protein-4 (LTBP4S) C-terminal region, ARCL1C mutant C1286S (human). The assay is described as follows: SPR; ProteOn, LTBP4 C-terminal constructs amine-coupled on GLC chip, fibrillin-1 PF3 injected 100-3.1 nM, 10 mM HEPES, 150 mM NaCl, pH 7.4, 0.005% Tween-20, 25°C; steady state (equilibrium) analysis.
The next assay has as its target T1, Fibulin-4, full length (UniProt O95967 24-443, biotin (biotinylated ligand on streptavidin biosensors, position not stated)).
T1 construct: full-length fibulin-4; source: expressed and purified as previously described (Choudhury et al., 2009)
T1 sequence (looked up): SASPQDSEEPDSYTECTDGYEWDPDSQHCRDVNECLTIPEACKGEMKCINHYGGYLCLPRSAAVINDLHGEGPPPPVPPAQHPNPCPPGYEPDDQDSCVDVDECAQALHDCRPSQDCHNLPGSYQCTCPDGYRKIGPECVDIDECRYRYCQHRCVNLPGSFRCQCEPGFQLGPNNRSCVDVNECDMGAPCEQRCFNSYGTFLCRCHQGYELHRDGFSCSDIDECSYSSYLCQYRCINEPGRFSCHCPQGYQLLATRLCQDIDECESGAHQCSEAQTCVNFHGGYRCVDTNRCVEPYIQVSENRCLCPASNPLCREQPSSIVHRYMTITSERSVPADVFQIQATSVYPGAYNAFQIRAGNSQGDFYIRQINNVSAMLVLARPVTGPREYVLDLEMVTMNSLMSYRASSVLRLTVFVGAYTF
The assay is described as follows: BLI; OctetRED96, immobilised full-length fibulin-4, NWT or C274G 1000-62.5 nM, 10 mM HEPES, 150 mM NaCl, pH 7.4, 0.005% Tween-20, 25°C; steady state analysis. Background: In BLI a coated tip is dipped into the sample, and binding shifts an interference pattern.

In assay [2] the target is T2, Tropoelastin (SHELdelta26A) (biotin where immobilised on streptavidin biosensors (position not given)).
T2 chain: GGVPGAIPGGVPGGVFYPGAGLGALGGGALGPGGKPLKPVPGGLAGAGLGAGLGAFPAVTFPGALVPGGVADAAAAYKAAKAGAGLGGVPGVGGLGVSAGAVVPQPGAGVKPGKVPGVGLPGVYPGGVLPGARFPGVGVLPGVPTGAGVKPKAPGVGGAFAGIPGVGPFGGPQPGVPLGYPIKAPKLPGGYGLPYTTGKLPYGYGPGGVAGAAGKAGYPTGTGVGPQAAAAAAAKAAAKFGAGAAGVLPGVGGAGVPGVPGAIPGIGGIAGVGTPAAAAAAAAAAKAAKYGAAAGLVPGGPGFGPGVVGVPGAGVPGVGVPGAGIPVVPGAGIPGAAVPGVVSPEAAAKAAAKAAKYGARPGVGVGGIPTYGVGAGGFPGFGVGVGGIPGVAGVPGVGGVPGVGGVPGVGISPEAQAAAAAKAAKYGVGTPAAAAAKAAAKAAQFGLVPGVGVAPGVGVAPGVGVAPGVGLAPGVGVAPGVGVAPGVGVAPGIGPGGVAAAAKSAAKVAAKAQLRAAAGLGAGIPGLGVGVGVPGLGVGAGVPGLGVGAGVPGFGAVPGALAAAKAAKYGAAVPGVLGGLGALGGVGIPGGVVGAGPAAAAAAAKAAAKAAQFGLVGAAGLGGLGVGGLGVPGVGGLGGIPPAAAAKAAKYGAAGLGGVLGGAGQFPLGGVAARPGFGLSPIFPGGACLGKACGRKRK
The assay is described as follows: BLI.

A further assay addresses T3, Fibrillin-1 PF3 fragment (UniProt P35555 45-722).
T3 construct: signal peptide in the construct; fibrillin-1 PF3 fragment, residues 1-722 (Rock et al., 2004); also called N-terminal region of fibrillin-1; source: purified
The assay is described as follows: SPR; ProteOn, LTBP4 C-terminal constructs amine-coupled on GLC chip, fibrillin-1 PF3 injected 100-3.1 nM, 10 mM HEPES, 150 mM NaCl, pH 7.4, 0.005% Tween-20, 25°C; steady state (equilibrium) analysis. As to conditions: both partners purified. Background: Surface plasmon resonance follows binding to a sensor surface in real time, without labels.

Assay [3] deals with Tropoelastin (SHELdelta26A). The assay is described as follows: BLI; OctetRED96, biotinylated tropoelastin on streptavidin biosensors, LTBP4 C-terminal constructs 375-23.4 nM, 10 mM HEPES, 150 mM NaCl, pH 7.4, 0.005% Tween-20, 25°C; steady state analysis.

Substitutions are numbered along the chain they refer to. Names and notes keep the numbering of the source. Like-named read-outs stand apart in the source and are kept apart here.

T3 sequence (P35555 45-722): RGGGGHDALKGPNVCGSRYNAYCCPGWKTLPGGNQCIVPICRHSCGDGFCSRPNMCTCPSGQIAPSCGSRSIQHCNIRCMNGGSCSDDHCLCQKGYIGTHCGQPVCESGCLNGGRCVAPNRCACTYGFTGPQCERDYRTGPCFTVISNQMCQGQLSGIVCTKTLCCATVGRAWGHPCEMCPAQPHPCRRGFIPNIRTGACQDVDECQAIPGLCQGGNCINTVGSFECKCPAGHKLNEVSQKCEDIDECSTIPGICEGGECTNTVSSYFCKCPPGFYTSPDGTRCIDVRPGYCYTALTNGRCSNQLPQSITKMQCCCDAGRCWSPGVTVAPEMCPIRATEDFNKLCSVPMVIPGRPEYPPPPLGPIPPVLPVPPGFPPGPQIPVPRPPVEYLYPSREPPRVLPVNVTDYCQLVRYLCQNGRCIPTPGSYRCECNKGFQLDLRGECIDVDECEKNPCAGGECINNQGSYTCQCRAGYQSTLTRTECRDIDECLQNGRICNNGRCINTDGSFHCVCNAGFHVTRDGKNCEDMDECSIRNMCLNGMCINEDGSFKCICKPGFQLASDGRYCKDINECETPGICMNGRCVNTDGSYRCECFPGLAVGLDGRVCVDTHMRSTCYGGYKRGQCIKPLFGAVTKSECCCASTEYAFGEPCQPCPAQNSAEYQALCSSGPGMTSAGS

In assay [1], “Fibrillin-1 PF3 fragment (from UniProt P35555 45-722) (domain or fragment)” showed a Kd of 12.2 nM.

As for “Latent TGFβ binding protein-4 (LTBP4S) N-terminal region, ARCL1C mutant C274G (domain or fragment)”, in the assay with Fibulin-4, full length, the dissociation constant (Kd) stood at 177 nM.

B1: Latent TGFβ binding protein-4 (LTBP4S) C-terminal region, wild type (domain or fragment, human, UniProt Q8N2S1-2 1114-1557, looked up)
chain: RECYFDTAAPDACDNILARNVTWQECCCTVGEGWGSGCRIQQCPGTETAEYQSLCPHGRGYLAPSGDLSLRRDVDECQLFRDQVCKSGVCVNTAPGYSCYCSNGYYYHTQRLECIDNDECADEEPACEGGRCVNTVGSYHCTCEPPLVLDGSQRRCVSNESQSLDDNLGVCWQEVGADLVCSHPRLDRQATYTECCCLYGEAWGMDCALCPAQDSDDFEALCNVLRPPAYSPPRPGGFGLPYEYGPDLGPPYQGLPYGPELYPPPALPYDPYPPPPGPFARREAPYGAPRFDMPDFEDDGGPYGESEAPAPPGPGTRWPYRSRDTRRSFPEPEEPPEGGSYAGSLAEPYEELEAEECGILDGCTNGRCVRVPEGFTCRCFDGYRLDMTRMACVDINECDEAEAASPLCVNARCLNTDGSFRCICRPGFAPTHQPHHCAPARPRA
notes: numbers count on: LTBP4S; N-glycosylated (PNGase-F shift); also called CWT; C WT
As to B1, the figures for the dissociation constant Kd (in assay [2]; with Fibrillin-1 PF3 fragment; in assay [3]) were 6.4 nM, 15.8 nM and 57 nM, respectively.

B2: Latent TGFβ binding protein-4 (LTBP4S) C-terminal region, ARCL1C mutant C1286S (domain or fragment)
chain: B1 chain with C143S
As for B2, the Kd in assay [2] was determined as 65 nM; in assay [3], 151 nM.

B3: Latent TGFβ binding protein-4 (LTBP4S) N-terminal region, wild type (domain or fragment, human, UniProt Q8N2S1-2 29-394, looked up)
chain: GERLRVRFTPVVCGLRCVHGPTGSRCTPTCAPRNATSVDSGAPGGAAPGGPGFRAFLCPLICHNGGVCVKPDRCLCPPDFAGKFCQLHSSGARPPAPAVPGLTRSVYTMPLANHRDDEHGVASMVSVHVEHPQEASVVVHQVERVSGPWEEADAEAVARAEAAARAEAAAPYTVLAQSAPREDGYSDASGFGYCFRELRGGECASPLPGLRTQEVCCRGAGLAWGVHDCQLCSERLGNSERVSAPDGPCPTGFERVNGSCEDVDECATGGRCQHGECANTRGGYTCVCPDGFLLDSSRSSCISQHVISEAKGPCFRVLRDGGCSLPILRNITKQICCCSRVGKAWGRGCQLCPPFGSEGFREICPA
notes: numbers count on: LTBP4S; N-glycosylated (PNGase-F shift); Biotinylated when immobilised on streptavidin biosensors in the fibronectin BLI experiment (general BLI methods); also called NWT; LTBP4 N-terminal region
B3 showed a Kd with Fibulin-4, full length (both partners purified) of 1290 nM.
